First the molecules themselves.
B1: Pistol ribozyme (parent)
chain: GGGUCGUUGUUCCAUAAUCGCGUGGAUAUGGCACGCAAGUUUCUACCGGGCACCGUAAAUGUCCGACUGGAGCCGUUCGGGCGGCUAUAAACAGACCUCAGGCCCGAAGCGUGGCGGCACCUGCCGCCGGUGGUAAAAAAGAUCGGAAGAGCACACGUCU

The data set covers variants of B1. In words: aptazyme ON/OFF ratio, guanine; higher = stronger switching; co-transcriptional cleavage with and without guanine.
Take U8A G9C U10A C12U: the “aptazyme ON/OFF ratio” value is 1.14.
Take U8A G9C U10A C12A: the “aptazyme ON/OFF ratio” value came to 1.27.
As to U8A G9C U10A C12G, the “aptazyme ON/OFF ratio” value stood at 1.17.
In the case of U8A G9A U10G U11G, the “aptazyme ON/OFF ratio” value was determined as 1.07.
To U8A G9C C12G C13U belongs 1.27.
Turning to U8A G9C C12G C13G, the “aptazyme ON/OFF ratio” value turned out to be 1.14.
Consider U8A G9C C12G C13A, for which the “aptazyme ON/OFF ratio” value came out at 1.2.
As to U8A G9C U10A U11A C12U C13G, the “aptazyme ON/OFF ratio” value was 1.19.
U8A G9C U10A U11A C12U C13A: the “aptazyme ON/OFF ratio” value came to 1.18.
To U8A G9C U10A U11A C12U C13U belongs 1.17.
With U8A G9A U11A C12A C13G, the “aptazyme ON/OFF ratio” value was determined as 1.25.
To U8A G9A U11A C12A C13U belongs 1.35.
With U8A G9A U11A C12A C13A, the “aptazyme ON/OFF ratio” value was 1.3.
To U8A G9C U10A U11A C12G C13U belongs 1.3; to U8A G9C U10A U11A C12G C13G, 1.23; to U8A G9C U10A U11A C12G C13A, 1.14.
Consider U8A G9A U11G C12U C13U, for which the “aptazyme ON/OFF ratio” value was found to be 1.51.
As for U8A G9A U11G C12U C13G, the “aptazyme ON/OFF ratio” value worked out at 1.18.
As for U8A G9A U11G C12U C13A, the “aptazyme ON/OFF ratio” value came out at 1.23.
To U8A G9C U10A U11C C12A C13A belongs 1.22.
With U8A G9C U10A U11C C12A C13G, the “aptazyme ON/OFF ratio” value amounted to 1.12.
In the case of U8A G9C U10A U11C C12A C13U, the “aptazyme ON/OFF ratio” value came out at 1.24.
Regarding U8A G9A U11A C12G C13U, the “aptazyme ON/OFF ratio” value stood at 1.04.
As for U8A G9A U11A C12G C13G, the “aptazyme ON/OFF ratio” value came out at 1.2.
For the variant U8A G9A U11A C12G C13A, the “aptazyme ON/OFF ratio” value turned out to be 1.11.
On to U8A G9C U10C U11A, for which the “aptazyme ON/OFF ratio” value came to 0.878.
U8A G9C U10C C12G: the “aptazyme ON/OFF ratio” value came out at 1.05.
On to U8A G9C U10C C12U, for which the “aptazyme ON/OFF ratio” value worked out at 1.06.
To U8A G9C U10C C12A belongs 1.04; to U8A G9A U11A C13G, 1.03; to U8A G9A U11A C13A, 1.26.
U8A G9A U11A C13U: the “aptazyme ON/OFF ratio” value was found to be 1.16.
U8A G9C C12A: the “aptazyme ON/OFF ratio” value worked out at 1.37.
For the variant U8A G9C C12G, the “aptazyme ON/OFF ratio” value came to 1.22.
Consider U8A G9C C12U, for which the “aptazyme ON/OFF ratio” value was found to be 1.3.
On to U8A G9A U10G U11C C12U C13A, for which the “aptazyme ON/OFF ratio” value came to 1.21.
With U8A G9A U10G U11C C12U C13U, the “aptazyme ON/OFF ratio” value came out at 1.15.
To U8A G9A U10G U11C C12U C13G belongs 1.16; to U8A G9C U10C C12G C13A, 1.07; to U8A G9C U10C C12G C13U, 1.05.
As to U8A G9C U10C C12G C13G, the “aptazyme ON/OFF ratio” value was found to be 1.03.
Turning to U8A G9A U11C C12U C13U, the “aptazyme ON/OFF ratio” value amounted to 1.21.
As to U8A G9A U11C C12U C13A, the “aptazyme ON/OFF ratio” value came out at 1.23.
To U8A G9A U11C C12U C13G belongs 1.2; to U8A G9C U10A U11C C12A, 1.21; to U8A G9C U10A U11C C12U, 1.06.
To U8A G9C U10A U11C C12G belongs 1.1; to U8A G9A U11C, 1.05; to U8A G9A U11A, 1.39.
Take U8A G9A U11G: the “aptazyme ON/OFF ratio” value came to 1.44.
Regarding U8A G9C U10C C12A C13U, the “aptazyme ON/OFF ratio” value stood at 0.995.
To U8A G9C U10C C12A C13A belongs 1.03; to U8A G9C U10C C12A C13G, 1.08; to U8A G9C U10A C13U, 1.13.
Take U8A G9C U10A C13A: the “aptazyme ON/OFF ratio” value turned out to be 1.15.
In the case of U8A G9C U10A C13G, the “aptazyme ON/OFF ratio” value amounted to 1.06.
As to U8A G9C U10A U11A, the “aptazyme ON/OFF ratio” value came out at 1.37.
With U8A G9C U10A U11G, the “aptazyme ON/OFF ratio” value is 1.3.
For the variant U8A G9C U10A U11C, the “aptazyme ON/OFF ratio” value came to 1.01.
Turning to U8A G9C U10A U11C C12U C13G, the “aptazyme ON/OFF ratio” value was found to be 1.15.
In the case of U8A G9C U10A U11C C12U C13U, the “aptazyme ON/OFF ratio” value worked out at 1.09.
As to U8A G9C U10A U11C C12U C13A, the “aptazyme ON/OFF ratio” value came to 1.07.
Regarding U8A G9A U11C C12G C13G, the “aptazyme ON/OFF ratio” value was 1.15.
Turning to U8A G9A U11C C12G C13A, the “aptazyme ON/OFF ratio” value turned out to be 1.15.
U8A G9A U11C C12G C13U: the “aptazyme ON/OFF ratio” value amounted to 1.22.
In the case of U8A G9C U10A C12G C13A, the “aptazyme ON/OFF ratio” value worked out at 1.19.
With U8A G9C U10A C12G C13U, the “aptazyme ON/OFF ratio” value was 1.14.
For U8A G9C U10A C12G C13G, the “aptazyme ON/OFF ratio” value was 1.11.
With U8A G9A U10G U11G C12A C13A, the “aptazyme ON/OFF ratio” value was determined as 1.12.
As to U8A G9A U10G U11G C12A C13G, the “aptazyme ON/OFF ratio” value was determined as 1.27.
To U8A G9A U10G U11G C12A C13U belongs 1.3.
Turning to U8A G9C C12A C13U, the “aptazyme ON/OFF ratio” value was found to be 1.25.
To U8A G9C C12A C13A belongs 1.24; to U8A G9C C12A C13G, 1.17; to U8A G9C U10A U11G C12U C13U, 1.14.
To U8A G9C U10A U11G C12U C13A belongs 1.17; to U8A G9C U10A U11G C12U C13G, 1.18.
For U8A G9C U10A U11G C12G C13A, the “aptazyme ON/OFF ratio” value turned out to be 1.15.
As to U8A G9C U10A U11G C12G C13U, the “aptazyme ON/OFF ratio” value is 1.21.
Consider U8A G9C U10A U11G C12G C13G, for which the “aptazyme ON/OFF ratio” value amounted to 1.16.
As to U8A G9C C12U C13A, the “aptazyme ON/OFF ratio” value came out at 1.21.
As for U8A G9C C12U C13G, the “aptazyme ON/OFF ratio” value was 1.15.
For the variant U8A G9C C12U C13U, the “aptazyme ON/OFF ratio” value was found to be 1.2.
